Results on 1 molecule are retold here after patent publication US20160264664A1 (Ablynx, published 2016).

The experiment has as its target T1, Human CXCL12/SDF-1 alpha (human, UniProt P48061-2 22-89, biotinylated or 125I-labelled).
T1 construct: also called CXCL12/SDF-la; SDF-1
The experiment is described as follows: flow cytometry (Fluorokine kit) on CXCR4-transfected HEK293 but not parental HEK293 cells. Background: A flow cytometer gives signals particle by particle.

T1 sequence (P48061 22-89 limits assumed): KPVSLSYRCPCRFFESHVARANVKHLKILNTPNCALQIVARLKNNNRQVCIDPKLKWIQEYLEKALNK
Text: To verify the functional expression of human CXCR4, the endotoxin-free pVAX1-CXCR4 plasmid was transiently transfected into HEK293 cells using Eugene (Roche) to monitor in vitro extracellular expression via flow cytometry.

B1: human chemokine receptor CXCR4 (receptor, UniProt P61073 1-352, looked up)
chain: MEGISIYTSDNYTEEMGSGDYDSMKEPCFREENANFNKIFLPTIYSIIFLTGIVGNGLVILVMGYQKKLRSMTDKYRLHLSVADLLFVITLPFWAVDAVANWYFGNFLCKAVHVIYTVNLYSSVLILAFISLDRYLAIVHATNSQRPRKLLAEKVVYVGVWIPALLLTIPDFIFANVSEADDRYICDRFYPNDLWVVVFQFQHIMVGLILPGIVILSCYCIIISKLSHSKGHQKRKALKTTVILILAFFACWLPYYIGISIDSFILLEIIKQGCEFENTVHKWISITEALAFFHCCLNPILYAFLGAKFKTSAQHALTSVSRGSSLKILSKGKRGGHSSVSTESESSSFHSS
notes: whole, on cells; on transfected HEK293 or camelid (CAKI) cells, or as membrane vesicles / membrane extracts of transfected HEK293 cells; also called hCXCR4
Regarding B1, the binding result is “binds”.
